Measured values as given in WO2004046187A2 (dated 2004).

How the values were obtained:
[1] = target: T1, Recombinant oncogenic HRAS (G12V; residues 1 - 166) loaded with GppNp (human, UniProt P01112 1-166); test: SPR, BIAcore 2000; HRASG12V-GppNp immobilised on CM5 chip (about 1500 RU), purified scFv injected
T1 construct: range 1-166; this form was used as antigen throughout the in vitro assays; also called HRASG12V-GppNp; RASG12V-GppNp

[2] = target: T2, LexA DBD (made from the empty pBTM116 vector) (UniProt P0A7C2 1-202); test: yeast two-hybrid (His-independent growth, β-gal activation)
T2 construct: domain: LexA DBD; Control bait in yeast
T2 sequence: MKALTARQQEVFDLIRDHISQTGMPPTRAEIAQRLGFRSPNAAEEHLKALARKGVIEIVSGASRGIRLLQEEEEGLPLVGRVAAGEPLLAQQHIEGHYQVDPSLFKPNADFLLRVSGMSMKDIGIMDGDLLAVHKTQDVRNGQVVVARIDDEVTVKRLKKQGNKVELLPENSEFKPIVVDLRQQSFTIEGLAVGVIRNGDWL

[3] = target: T3, non-relevant antigen (β-galactosidase) bait in yeast (UniProt P00722 2-1024 = β-galactosidase); test: as above
T3 construct: Used as non-relevant bait in the yeast two-hybrid test
T3 sequence (P00722 2-1024 limits assumed): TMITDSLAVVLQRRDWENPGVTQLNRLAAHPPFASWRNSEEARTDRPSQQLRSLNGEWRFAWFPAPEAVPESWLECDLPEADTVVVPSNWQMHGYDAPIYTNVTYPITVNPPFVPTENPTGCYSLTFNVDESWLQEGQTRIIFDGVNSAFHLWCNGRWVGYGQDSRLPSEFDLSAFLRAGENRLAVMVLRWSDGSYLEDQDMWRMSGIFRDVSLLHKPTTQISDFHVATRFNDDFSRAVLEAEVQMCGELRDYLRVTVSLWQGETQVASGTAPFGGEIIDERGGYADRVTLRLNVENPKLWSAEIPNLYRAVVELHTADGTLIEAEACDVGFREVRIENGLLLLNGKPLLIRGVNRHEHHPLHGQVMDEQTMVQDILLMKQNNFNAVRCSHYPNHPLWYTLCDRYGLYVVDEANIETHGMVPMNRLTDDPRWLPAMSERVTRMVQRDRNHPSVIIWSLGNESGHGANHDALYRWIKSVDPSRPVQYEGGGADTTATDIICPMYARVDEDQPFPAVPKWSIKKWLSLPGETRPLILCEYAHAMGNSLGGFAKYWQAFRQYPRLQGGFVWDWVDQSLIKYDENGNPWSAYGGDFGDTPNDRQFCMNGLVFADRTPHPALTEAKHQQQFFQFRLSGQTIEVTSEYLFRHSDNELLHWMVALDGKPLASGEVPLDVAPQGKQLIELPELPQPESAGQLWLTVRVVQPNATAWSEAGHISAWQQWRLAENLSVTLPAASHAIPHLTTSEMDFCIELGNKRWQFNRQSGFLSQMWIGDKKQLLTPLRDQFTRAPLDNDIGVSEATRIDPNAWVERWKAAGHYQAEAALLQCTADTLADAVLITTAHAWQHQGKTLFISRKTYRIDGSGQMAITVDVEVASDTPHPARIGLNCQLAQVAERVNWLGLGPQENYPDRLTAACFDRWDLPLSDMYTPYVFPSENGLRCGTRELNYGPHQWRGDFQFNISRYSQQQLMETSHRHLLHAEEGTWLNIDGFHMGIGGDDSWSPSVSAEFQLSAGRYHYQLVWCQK

B1: anti-RAS scFvI21, purified from bacterial periplasm (pHEN2) (scFv)
scFv: EVQLLESGGGLVQPGGSLRLSCAASGFTFSSYAMSWVRQAPGKGLEWVSTISYGGSNTNYADSVKARFTISRDNSKNTLYLQMNSLRAEDTAVYYCAKGNNAFDYWGQGTLVTVSSGGGGSGGGGSGGGGSTDIQMTQSPSSLSASVGDRVTITCRASQSISSYLNWYQQKPGKAPKLLIYNASALQSGVPSRFSGSGSGTDFTLTISSLQPEDFATYYCQQYTSTPRTFGQGTKVEIKR
notes: also called 121 (as the text prints it); ICAb 121; not shown: C-terminal His6-tag and myc-tag from pHEN2
Binder B1 has a Kd [1] of 2.16 µM.

B2: scFvI21-VP16 activation domain fusion (scFv)
scFv: B1 scFv
notes: In the mammalian vector the scFv stands on the N-terminal side of VP16; the same id is used for the yeast pVP16 prey; also called 121; ICAb 121
B2: no binding [2]; no binding [3].
